Measurements as given in patent publication US20100260668A1 (published 2010).

T1: PlGF (UniProt P49763-2 21-149, limits assumed)
T1 construct: bought antigen coated on the ELISA plate; also called Placental GF
T1 sequence (looked up): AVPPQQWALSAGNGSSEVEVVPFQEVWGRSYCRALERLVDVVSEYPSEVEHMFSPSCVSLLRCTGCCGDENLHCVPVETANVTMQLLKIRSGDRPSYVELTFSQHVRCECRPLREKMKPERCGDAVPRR


What was measured:
VEGF 1-165 aa = molecular target: T2, VEGF 1-165 aa (UniProt P15692 27-191); test: direct bind ELISA (C-term VD)
T2 construct: Bought antigen coated on the ELISA plate
T2 sequence (P15692 other isoform, or with tags, fused parts or gaps limits assumed): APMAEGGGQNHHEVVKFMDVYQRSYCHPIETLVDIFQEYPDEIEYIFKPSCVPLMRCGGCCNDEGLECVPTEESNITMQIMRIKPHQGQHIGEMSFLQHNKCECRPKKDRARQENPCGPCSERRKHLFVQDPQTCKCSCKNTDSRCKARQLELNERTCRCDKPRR

HGF-His tag = molecular target: T3, HGF-His tag (UniProt P14210 32-728); test: direct bind ELISA (N-term VD);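 note: ELISA screen of antibodies for binding to plate-immobilized target antigen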
T3 construct: Bought antigen coated on the ELISA plate; not shown: His tag
T3 sequence (P14210 32-728 limits assumed): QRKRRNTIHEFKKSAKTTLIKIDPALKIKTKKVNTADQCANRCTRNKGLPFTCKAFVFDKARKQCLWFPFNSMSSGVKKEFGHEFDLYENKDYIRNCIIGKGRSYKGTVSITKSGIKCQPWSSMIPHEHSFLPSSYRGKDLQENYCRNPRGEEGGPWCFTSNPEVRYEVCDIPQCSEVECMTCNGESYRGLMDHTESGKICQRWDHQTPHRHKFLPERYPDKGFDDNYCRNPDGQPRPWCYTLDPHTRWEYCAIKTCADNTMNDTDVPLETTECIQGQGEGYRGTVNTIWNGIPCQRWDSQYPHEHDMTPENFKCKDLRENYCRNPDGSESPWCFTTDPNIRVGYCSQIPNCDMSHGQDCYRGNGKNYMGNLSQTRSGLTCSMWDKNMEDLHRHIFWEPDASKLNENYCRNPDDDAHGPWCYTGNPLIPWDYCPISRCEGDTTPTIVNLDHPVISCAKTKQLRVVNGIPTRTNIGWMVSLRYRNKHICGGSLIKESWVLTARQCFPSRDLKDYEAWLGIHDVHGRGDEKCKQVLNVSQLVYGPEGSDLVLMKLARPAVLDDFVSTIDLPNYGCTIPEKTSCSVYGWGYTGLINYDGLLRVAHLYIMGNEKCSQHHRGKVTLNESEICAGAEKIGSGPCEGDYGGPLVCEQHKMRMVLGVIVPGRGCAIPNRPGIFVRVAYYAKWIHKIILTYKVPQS

PlGF [1] = molecular target: T1, PlGF; test: direct bind ELISA, C-terminal VD
Procedure: Enzyme Linked Immunosorbent Assays to screen for antibodies that bind a desired target antigen were performed as follows. […] Plates were washed four times with PBS containing 0.02% Tween 20. Plates were blocked by the addition of 300 μL/well blocking solution (non-fat dry milk powder, various retail suppliers, diluted to 2% in PBS) for ½ hour at room temperature. Plates were washed four times after blocking with PBS containing 0.02% Tween 20.
Plates were washed 4 times with PBS containing 0.02% Tween 20.

PlGF [2] = molecular target: T1, PlGF; test: direct bind ELISA, N-terminal VD

EC50 (VEGF 1-165 aa) [nM] | EC50 (HGF-His tag) [nM] | EC50 (PlGF [1]) [nM] | EC50 (PlGF [2]) [nM] | Binder
341 | 0.11 | – | – | DVD651 (bispecific antibody, human IgG1, kappa, DVD-Ig; N-term VD AB012 (HGF), C-term VD AB071 (VEGF); HC linker long, LC linker short; vectors V1/V2) heavy: not shown light: DIQMTQSPSSVSASVGDRVTITCRASQGISSWLAWYQQKPGKAPNLLIYEASSLQSGVPSRFGGSGSGTDFTLTISSLQPEDFATYYCQQANGFPWTFGQGTKVEIKRTVAAPDIQMTQSPSSLSASVGDRVTITCRASQVIRRSLAWYQQKPGKAPKLLIYAASNLASGVPSRFSGSGSGTDFTLTISSLQPEDFATYYCQQSNTSPLTFGQGTKVEIKRTVAAPSVFIFPPSDEQLKSGTASVVCLLNNFYPREAKVQWKVDNALQSGNSQESVTEQDSKDSTYSLSSTLTLSKADYEKHKVYACEVTHQGLSSPVTKSFNRGEC
166 | 1.32 | – | – | DVD711 (bispecific antibody, human IgG1, kappa, DVD-Ig; N-term VD AB012 (HGF), C-term VD AB071 (VEGF); HC linker short, LC linker short; vectors V1/V2) heavy: not shown light: DIQMTQSPSSVSASVGDRVTITCRASQGISSWLAWYQQKPGKAPNLLIYEASSLQSGVPSRFGGSGSGTDFTLTISSLQPEDFATYYCQQANGFPWTFGQGTKVEIKRTVAAPDIQMTQSPSSLSASVGDRVTITCRASQVIRRSLAWYQQKPGKAPKLLIYAASNLASGVPSRFSGSGSGTDFTLTISSLQPEDFATYYCQQSNTSPLTFGQGTKVEIKRTVAAPSVFIFPPSDEQLKSGTASVVCLLNNFYPREAKVQWKVDNALQSGNSQESVTEQDSKDSTYSLSSTLTLSKADYEKHKVYACEVTHQGLSSPVTKSFNRGEC
– | – | 146 | – | DVD550 (bispecific antibody, human IgG1, kappa, HC linker long, LC linker long; also called DVD-Ig DVD550) heavy: not shown light: DIQMTQSPSSLSASVGDRVTITCSASQDISNYLNWYQQKPGKAPKVLIYFTSSLHSGVPSRFSGSGSGTDFTLTISSLQPEDFATYYCQQYSTVPWTFGQGTKVEIKRTVAAPSVFIFPPAIQMTQSSSSFSVSLGDRVTITCKASEDIYNRFAWYQQKPGNAPRLLISGAASLEAGVPSRFSGSGSGQDYTLSITSLQTEDVATYYCQQYWSTPWTFGGGTKLEIKRTVAAPSVFIFPPSDEQLKSGTASVVCLLNNFYPREAKVQWKVDNALQSGNSQESVTEQDSKDSTYSLSSTLTLSKADYEKHKVYACEVTHQGLSSPVTKSFNRGEC
5770 | 0.48 | – | – | DVD675 (bispecific antibody, human IgG1, kappa, DVD-Ig; N-term VD AB079 (HGF), C-term VD AB071 (VEGF); HC linker long, LC linker short; vectors V1/V2) heavy: not shown light: DIQMTQSPSSLSASVGDRVTITCKASENVVSYVSWYQQKPGKAPKLLIYGASNRNTGVPSRFSGSGSGTDFTLTISSLQPEDFATYYCGQSYNYPYTFGQGTKLEIKRTVAAPDIQMTQSPSSLSASVGDRVTITCRASQVIRRSLAWYQQKPGKAPKLLIYAASNLASGVPSRFSGSGSGTDFTLTISSLQPEDFATYYCQQSNTSPLTFGQGTKVEIKRTVAAPSVFIFPPSDEQLKSGTASVVCLLNNFYPREAKVQWKVDNALQSGNSQESVTEQDSKDSTYSLSSTLTLSKADYEKHKVYACEVTHQGLSSPVTKSFNRGEC
358 | 0.31 | – | – | DVD657 (bispecific antibody, human IgG1, kappa, DVD-Ig; N-term VD AB012 (HGF), C-term VD AB071 (VEGF); HC linker short, LC linker long; vectors V1/V2) heavy: not shown light: DIQMTQSPSSVSASVGDRVTITCRASQGISSWLAWYQQKPGKAPNLLIYEASSLQSGVPSRFGGSGSGTDFTLTISSLQPEDFATYYCQQANGFPWTFGQGTKVEIKRTVAAPSVFIFPPDIQMTQSPSSLSASVGDRVTITCRASQVIRRSLAWYQQKPGKAPKLLIYAASNLASGVPSRFSGSGSGTDFTLTISSLQPEDFATYYCQQSNTSPLTFGQGTKVEIKRTVAAPSVFIFPPSDEQLKSGTASVVCLLNNFYPREAKVQWKVDNALQSGNSQESVTEQDSKDSTYSLSSTLTLSKADYEKHKVYACEVTHQGLSSPVTKSFNRGEC
1660 | 0.29 | – | – | DVD669 (bispecific antibody, human IgG1, kappa, DVD-Ig; N-term VD AB079 (HGF), C-term VD AB071 (VEGF); HC linker long, LC linker long; vectors V1/V2) heavy: not shown light: DIQMTQSPSSLSASVGDRVTITCKASENVVSYVSWYQQKPGKAPKLLIYGASNRNTGVPSRFSGSGSGTDFTLTISSLQPEDFATYYCGQSYNYPYTFGQGTKLEIKRTVAAPSVFIFPPDIQMTQSPSSLSASVGDRVTITCRASQVIRRSLAWYQQKPGKAPKLLIYAASNLASGVPSRFSGSGSGTDFTLTISSLQPEDFATYYCQQSNTSPLTFGQGTKVEIKRTVAAPSVFIFPPSDEQLKSGTASVVCLLNNFYPREAKVQWKVDNALQSGNSQESVTEQDSKDSTYSLSSTLTLSKADYEKHKVYACEVTHQGLSSPVTKSFNRGEC
2160 | 0.27 | – | – | DVD681 (bispecific antibody, human IgG1, kappa, DVD-Ig; N-term VD AB079 (HGF), C-term VD AB071 (VEGF); HC linker short, LC linker long; vectors V1/V2) heavy: not shown light: DIQMTQSPSSLSASVGDRVTITCKASENVVSYVSWYQQKPGKAPKLLIYGASNRNTGVPSRFSGSGSGTDFTLTISSLQPEDFATYYCGQSYNYPYTFGQGTKLEIKRTVAAPSVFIFPPDIQMTQSPSSLSASVGDRVTITCRASQVIRRSLAWYQQKPGKAPKLLIYAASNLASGVPSRFSGSGSGTDFTLTISSLQPEDFATYYCQQSNTSPLTFGQGTKVEIKRTVAAPSVFIFPPSDEQLKSGTASVVCLLNNFYPREAKVQWKVDNALQSGNSQESVTEQDSKDSTYSLSSTLTLSKADYEKHKVYACEVTHQGLSSPVTKSFNRGEC
566 | 0.7 | – | – | DVD661 (bispecific antibody, human IgG1, kappa, DVD-Ig; HC linker short, LC linker short; vectors V1/V2) heavy: not shown light: DIQMTQSPSSLSASVGDRVTITCKASENVVSYVSWYQQKPGKAPKLLIYGASNRNTGVPSRFSGSGSGTDFTLTISSLQPEDFATYYCGQSYNYPYTFGQGTKLEIKRTVAAPDIQMTQSPSSLSASVGDRVTITCRASQDVSTAVAWYQQKPGKAPKLLIYSASFLYSGVPSRFSGSGSGTDFTLTISSLQPEDFATYYCQQSYTTPPTFGQGTKVEIKRTVAAPSVFIFPPSDEQLKSGTASVVCLLNNFYPREAKVQWKVDNALQSGNSQESVTEQDSKDSTYSLSSTLTLSKADYEKHKVYACEVTHQGLSSPVTKSFNRGEC
65.3 | 0.4 | – | – | DVD673 (bispecific antibody, human IgG1, kappa, DVD-Ig; HC linker long, LC linker short; vectors V1/V2) heavy: not shown light: DIQMTQSPSSLSASVGDRVTITCKASENVVSYVSWYQQKPGKAPKLLIYGASNRNTGVPSRFSGSGSGTDFTLTISSLQPEDFATYYCGQSYNYPYTFGQGTKLEIKRTVAAPDIQMTQSPSSLSASVGDRVTITCRASQDVSTAVAWYQQKPGKAPKLLIYSASFLYSGVPSRFSGSGSGTDFTLTISSLQPEDFATYYCQQSYTTPPTFGQGTKVEIKRTVAAPSVFIFPPSDEQLKSGTASVVCLLNNFYPREAKVQWKVDNALQSGNSQESVTEQDSKDSTYSLSSTLTLSKADYEKHKVYACEVTHQGLSSPVTKSFNRGEC
92.9 | 0.19 | – | – | DVD655 (bispecific antibody, human IgG1, kappa, DVD-Ig; HC linker short, LC linker long; vectors V1/V2) heavy: not shown light: DIQMTQSPSSVSASVGDRVTITCRASQGISSWLAWYQQKPGKAPNLLIYEASSLQSGVPSRFGGSGSGTDFTLTISSLQPEDFATYYCQQANGFPWTFGQGTKVEIKRTVAAPSVFIFPPDIQMTQSPSSLSASVGDRVTITCRASQDVSTAVAWYQQKPGKAPKLLIYSASFLYSGVPSRFSGSGSGTDFTLTISSLQPEDFATYYCQQSYTTPPTFGQGTKVEIKRTVAAPSVFIFPPSDEQLKSGTASVVCLLNNFYPREAKVQWKVDNALQSGNSQESVTEQDSKDSTYSLSSTLTLSKADYEKHKVYACEVTHQGLSSPVTKSFNRGEC
51.3 | 0.33 | – | – | DVD667 (bispecific antibody, human IgG1, kappa, DVD-Ig; HC linker long, LC linker long; vectors V1/V2) heavy: not shown light: DIQMTQSPSSLSASVGDRVTITCKASENVVSYVSWYQQKPGKAPKLLIYGASNRNTGVPSRFSGSGSGTDFTLTISSLQPEDFATYYCGQSYNYPYTFGQGTKLEIKRTVAAPSVFIFPPDIQMTQSPSSLSASVGDRVTITCRASQDVSTAVAWYQQKPGKAPKLLIYSASFLYSGVPSRFSGSGSGTDFTLTISSLQPEDFATYYCQQSYTTPPTFGQGTKVEIKRTVAAPSVFIFPPSDEQLKSGTASVVCLLNNFYPREAKVQWKVDNALQSGNSQESVTEQDSKDSTYSLSSTLTLSKADYEKHKVYACEVTHQGLSSPVTKSFNRGEC
92.4 | 0.32 | – | – | DVD679 (bispecific antibody, human IgG1, kappa, DVD-Ig; HC linker short, LC linker long; vectors V1/V2) heavy: not shown light: DIQMTQSPSSLSASVGDRVTITCKASENVVSYVSWYQQKPGKAPKLLIYGASNRNTGVPSRFSGSGSGTDFTLTISSLQPEDFATYYCGQSYNYPYTFGQGTKLEIKRTVAAPSVFIFPPDIQMTQSPSSLSASVGDRVTITCRASQDVSTAVAWYQQKPGKAPKLLIYSASFLYSGVPSRFSGSGSGTDFTLTISSLQPEDFATYYCQQSYTTPPTFGQGTKVEIKRTVAAPSVFIFPPSDEQLKSGTASVVCLLNNFYPREAKVQWKVDNALQSGNSQESVTEQDSKDSTYSLSSTLTLSKADYEKHKVYACEVTHQGLSSPVTKSFNRGEC
– | – | – | 98.8 | DVD545 (bispecific antibody, human IgG1, kappa, outer AB074 (PlGF), inner AB071 (VEGF); HC linker short, LC linker short; also called DVD-Ig DVD545) heavy: not shown light: AIQMTQSSSSFSVSLGDRVTITCKASEDIYNRFAWYQQKPGNAPRLLISGAASLEAGVPSRFSGSGSGQDYTLSITSLQTEDVATYYCQQYWSTPWTFGGGTKLEIKRTVAAPDIQMTQSPSSLSASVGDRVTITCRASQVIRRSLAWYQQKPGKAPKLLIYAASNLASGVPSRFSGSGSGTDFTLTISSLQPEDFATYYCQQSNTSPLTFGQGTKVEIKRTVAAPSVFIFPPSDEQLKSGTASVVCLLNNFYPREAKVQWKVDNALQSGNSQESVTEQDSKDSTYSLSSTLTLSKADYEKHKVYACEVTHQGLSSPVTKSFNRGEC
186 | 0.15 | – | – | DVD649 (bispecific antibody, human IgG1, kappa, DVD-Ig; HC linker long, LC linker short; vectors V1/V2) heavy: not shown light: DIQMTQSPSSVSASVGDRVTITCRASQGISSWLAWYQQKPGKAPNLLIYEASSLQSGVPSRFGGSGSGTDFTLTISSLQPEDFATYYCQQANGFPWTFGQGTKVEIKRTVAAPDIQMTQSPSSLSASVGDRVTITCRASQDVSTAVAWYQQKPGKAPKLLIYSASFLYSGVPSRFSGSGSGTDFTLTISSLQPEDFATYYCQQSYTTPPTFGQGTKVEIKRTVAAPSVFIFPPSDEQLKSGTASVVCLLNNFYPREAKVQWKVDNALQSGNSQESVTEQDSKDSTYSLSSTLTLSKADYEKHKVYACEVTHQGLSSPVTKSFNRGEC
1370 | 0.14 | – | – | DVD709 (bispecific antibody, human IgG1, kappa, DVD-Ig; HC linker short, LC linker short; vectors V1/V2) heavy: not shown light: DIQMTQSPSSVSASVGDRVTITCRASQGISSWLAWYQQKPGKAPNLLIYEASSLQSGVPSRFGGSGSGTDFTLTISSLQPEDFATYYCQQANGFPWTFGQGTKVEIKRTVAAPDIQMTQSPSSLSASVGDRVTITCRASQDVSTAVAWYQQKPGKAPKLLIYSASFLYSGVPSRFSGSGSGTDFTLTISSLQPEDFATYYCQQSYTTPPTFGQGTKVEIKRTVAAPSVFIFPPSDEQLKSGTASVVCLLNNFYPREAKVQWKVDNALQSGNSQESVTEQDSKDSTYSLSSTLTLSKADYEKHKVYACEVTHQGLSSPVTKSFNRGEC
